Reference: publication PMC6327262

Substrate: O=[N+]([O-])c1ccc(O[C@@H]2O[C@H](CO)[C@@H](O)[C@H](O)[C@H]2O)cc1
Assay: purified protein
Details: 25 mM sodium phosphate pH 6.0, 45 °C, 1 μg/mL enzyme, 0.1-5.0 mM substrate, no inhibitor

B1: rBGLa (Limosilactobacillus antri DSM 16041) (protein)
chain: MVKIDLQFVQGLTLEERAALVSGKDFWFTAKVPGVDRMMMSDGPSGLRKQDIDVAPTDVNNSVDAVCFPSSALTASSFDDQLLFKLGHHLGVAASAEKLGVLLGPGVNIKRSPLAGRNFEYFSEDPLLAGRMGTAYVKGVQEEGVGVSVKHFAANNRENQRFTSSSNIDERALREIYLAQFERIVKEAQPATLMCSYNRLNGTLNSQNQRLLTEILRNEWGFQGLVMSDWGAVADHVAAIKAGLDLEMPGKDQASVDEIVQAVKEGRLQESTLNRSALRVLQMVEKWGKDVSRTESYDKEEQHEFARQVADDSIVLLKNDNQELPLHTGGSLAVIGELAAKPRFEGGGSSHVNAHHLVTPLAAAPTNAKYAVGYSLTETAPNEELTKEAVQLAKQSDQVVFFAGFPERMETEGFDKDSIALPANQNALLREVLKVNPHVTVVLQNGSVVEMPWADGVPAIVETYLAGEAVGEATWDILTGKVNPSGKLSESFPLRLQDNPTYGTFARDHDEEDYHEGIFVGYRYYDLHEMPVRFPFGHGLSYTDFTYSDLTVSEEDNDVKVRFTVTNSGQVAGKEVAQVYVANHVSRVEMPVKELRDFTKLALAPGESKTVTLTLPRRAFSYYNVAQEQWEADNGEYEIMVGSSSRDIRLRTTFTLTIGVNPVGEITGDTYIGDIWNDQDPKVQAALKSSGLYEVLQPMMADKDWVAISANMPLRSLAATGIQEEVRDAFLRALK
- Km: 1840 ± 70 µM
- kcat: 407 s⁻¹
- kcat/Km: 221000 M⁻¹ s⁻¹
